Drawing on patent US20190062389A1, this text covers Binding Experiment Data (log Kd) (log Kd (concentration unit not given)) for one molecule.

The target of assay [1] is HLA-A*24:02 molecule (product of HLA-A*24:02 gene) on C1R-A24 cells (human). In words: flow cytometry, acid-stripped C1R-A24 cells with added b2m, peptide dilution series, 17A12 staining. A general note: Flow cytometry measures light scatter and fluorescence of single cells or particles in a stream.
Assay [2] deals with HLA-A*02:01 molecule (product of HLA-A*02:01 gene) on T2 cells (human). In words: flow cytometry, T2 cells with added b2m, peptide dilution series, BB7.2 staining.
Assay [3] concerns the target HLA-A*02:06 molecule (product of HLA-A*02:06 gene) on RA2.6 cells (human). Kind of assay: flow cytometry, RA2.6 cells, peptide dilution series, BB7.2 staining.

For the molecule SLTPQAFEF (modifications not checked) [GPC3-derived peptide … (SEQ ID NO: 5)], the Binding Experiment Data (log Kd) (log Kd (concentration unit not given)) was -7.11 in assay [1], -4.93 in assay [2] and -4.52 in assay [3].
